± gives the half width of the 95% confidence interval.

Data set [1] in a line: folding stability dG unfold from trypsin proteolysis; higher = more stable. In short, it runs like this:
(§1)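 Only designs with AlphaFold2 dimer inter-PAE above 15 were retained; each was a mini-protein under 80 residues with no cysteine, in a PA-tagged cDNA display construct. After digestion with trypsin and chymotrypsin and sequencing, K50 was inferred by Bayesian fitting of counts, and unfolding free energy was derived per protease or combined against a sequence-predicted unfolded-state K50 and a shared folded-state K50.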

The nature of data set [2]: folding stability dG unfold from chymotrypsin proteolysis; higher = more stable. In short, it runs like this:
as §1

Data set [3] is described as follows: folding stability dG unfold (combined trypsin and chymotrypsin); higher = more stable. In short, it runs like this:
as §1

For “SAGGSAGGSAGGMTVTLKAPDGKWLTVPVDPEDPKAVKEAVEELAAKGHPVVEVSTDEKSAGGSAGGSAGGS [r10_231_JUSTAS]”, the “folding stability dG unfold” value is 0.555 ± 0.025 kcal/mol in data set [1], 0.0542 ± 0.097 kcal/mol in data set [2] and 0.355 ± 0.059 kcal/mol in data set [3].
On the same counts, the results for “SAGGSAGGSAGGMTVTTEKAAPSPRQVTVTTVYDPSTGTSVTIVTLPDGSLKVIPSGTLSAGGSAGGSAGGS [r10_996_JUSTAS]” are 0.193 ± 0.14 kcal/mol, -0.404 ± 0.22 kcal/mol and -0.247 ± 0.23 kcal/mol.
For “SAGGSAGGSAGGMVIVTFPDGSVREVEVLETEPDGTVVVAPPDRPVETLSGAGLTLTPVPSAGGSAGGSAGG [r7_823_JUSTAS]” the same measures were 1.19 ± 0.071 kcal/mol, -0.524 ± 0.13 kcal/mol and 0.59 ± 0.07 kcal/mol.
On the same counts, the results for “SAGGSAGGSAGGMVKITFEKDPNSDKGRVTLTDPNATVTLEYDSEEEAEKAIKERFPELESAGGSAGGSAGG [r7_841_JUSTAS]” are -0.364 ± 0.14 kcal/mol, 0.879 ± 0.02 kcal/mol and 0.435 ± 0.088 kcal/mol.
“SAGGSAGGSAGGMVLVETEPLPDGGYRVLVVFPGTDEVRELYFSSSTTPEQVLDVVLAESAGGSAGGSAGGS [r10_825_TrMRF]”: the “folding stability dG unfold” value in data set [1] worked out at 2.44 ± 0.059 kcal/mol; in data set [2], 2.233 ± 0.021 kcal/mol; in data set [3], 2.34 ± 0.083 kcal/mol.
For “SAGGSAGGSAGGMVVLENGDEVIVETFEFEEPVLDDVSEELREELGVVKVTVTKVTVIRRSAGGSAGGSAGG [r7_324_JUSTAS]” the same measures were 1.08 ± 0.069 kcal/mol, 1.15 ± 0.059 kcal/mol and 1.11 ± 0.13 kcal/mol.
For “SAGGSAGGSAGGMYKVTITVGGKEITIEVSEEELEELLKALEDEGYEIKEIRVEKLPEESAGGSAGGSAGGS [r10_405_TrROS_Hall]” the same measures were 3.91 ± 0.23 kcal/mol, 3.57 ± 0.097 kcal/mol and 3.63 ± 0.11 kcal/mol.
On the same counts, the results for “SAGGSAGGSAGGMYVLIKITNPKTKKEISILIKVKPGDKITFTLPNGAKVEIIELPPEESAGGSAGGSAGGS [r10_957_TrROS_Hall]” are 3.3 ± 0.13 kcal/mol, 4.28 ± 0.068 kcal/mol and 3.92 ± 0.22 kcal/mol.
Consider “SAGGSAGGSAGGNIEIFYFPDGYVVITIWDPDEGWRIVITAKIDPGDGKIKEMDIMPVPSAGGSAGGSAGGS [r10_613_TrROS]”, for which the “folding stability dG unfold” value in data set [1] was determined as 2.67 ± 0.18 kcal/mol; in data set [2], 2.91 ± 0.13 kcal/mol; in data set [3], 2.85 ± 0.19 kcal/mol.
On the same counts, the results for “SAGGSAGGSAGGNKVTIPIHIPPGDPGNPEKAIEWAEHIAKELQEKNGGKDVDINIMPSPSAGGSAGGSAGG [r7_440_TrROS]” are 0.772 ± 0.1 kcal/mol, -0.595 ± 0.079 kcal/mol and 0.174 ± 0.33 kcal/mol.
Regarding “SAGGSAGGSAGGNPLKGNFFRLKLELTLKVEVKIPKKGEKKTFPIKIELELDVPPDSILSAGGSAGGSAGGS [r10_133_TrMRF]”, the “folding stability dG unfold” value in data set [1] stood at 3.39 ± 0.26 kcal/mol; in data set [2], 3.98 ± 0.12 kcal/mol; in data set [3] it was 3.69 ± 0.11 kcal/mol.
Regarding “SAGGSAGGSAGGNVIRVEKEPNTVVLYFPDGTYRVVEVEKKDESVKVLSEKVEPIVPGLLSAGGSAGGSAGG [r7_443_JUSTAS]”, the figures for the “folding stability dG unfold” value in data set [1], in data set [2] and in data set [3] were 1.12 ± 0.024 kcal/mol, -0.177 ± 0.2 kcal/mol and 0.702 ± 0.059 kcal/mol, respectively.
With “SAGGSAGGSAGGNWYIIIYFPPGRKRIIPFDSPEEMREEMKENGMPIKIMPKEDAEKLLSAGGSAGGSAGGS [r10_66_TrROS]”, the figures for the “folding stability dG unfold” value in data set [1], in data set [2] and in data set [3] were 0.848 ± 0.078 kcal/mol, 1.25 ± 0.052 kcal/mol and 1.14 ± 0.084 kcal/mol, respectively.
On the same counts, the results for “SAGGSAGGSAGGPAAGEKVVAVGVNPNGETSVREFTVHPDDPLGEVYTEDGTRWYFYPGTSAGGSAGGSAGG [r7_132_TrMRF]” are 0.303 ± 0.091 kcal/mol, 0.338 ± 0.23 kcal/mol and 0.342 ± 0.15 kcal/mol.
As to “SAGGSAGGSAGGPAPKIDIEIIGVFKTGNRPILIIRFPDGAVIVIDLDSGEIGVIPPDQISAGGSAGGSAGG [r7_28_TrROS]”, the “folding stability dG unfold” value in data set [1] worked out at 2.9 ± 0.19 kcal/mol; in data set [2] it was 2.24 ± 0.11 kcal/mol; in data set [3], 2.66 ± 0.17 kcal/mol.
For “SAGGSAGGSAGGPAVPVRTTLPDGRVVYYDPESGLTTIYVPETNETLVRDPATGTVTALSAGGSAGGSAGGS [r10_1057_JUSTAS]” the same measures were 1.26 ± 0.027 kcal/mol, 0.562 ± 0.04 kcal/mol and 0.938 ± 0.036 kcal/mol.
For the sequence “SAGGSAGGSAGGPDPEAYPFRYPDREFVLVRNPDEPDTYTILYPDDKVETVPAEDILPESAGGSAGGSAGGS [r10_556_TrMRF]”, the “folding stability dG unfold” value in data set [1] was 0.473 ± 0.027 kcal/mol; in data set [2], -0.0442 ± 0.098 kcal/mol; in data set [3], 0.3 ± 0.06 kcal/mol.
Consider “SAGGSAGGSAGGPEAVIEELKKAGYTPKVDPNSSVVTVTYKNPDGTILTKTINVPPSLLSAGGSAGGSAGGS [r10_1173_JUSTAS]”, for which the “folding stability dG unfold” value in data set [1] is -0.269 ± 0.25 kcal/mol; in data set [2] it was 1.59 ± 0.2 kcal/mol; in data set [3], 1.16 ± 0.26 kcal/mol.
For “SAGGSAGGSAGGPEIITFRNPGNGVTLMVWRTPNNITVSIYNPDGPQKEIPIPPGEPIFSAGGSAGGSAGGS [r10_976_TrROS]” the same measures were 0.833 ± 0.098 kcal/mol, 0.971 ± 0.36 kcal/mol and 0.875 ± 0.19 kcal/mol.
Consider “SAGGSAGGSAGGPEIVSAEVLAVFDDGKLVKVKLRVPTPGKGYRYLEAVFLVKPGEKLLSAGGSAGGSAGGS [r10_1183_TrMRF]”, for which the “folding stability dG unfold” value in data set [1] is 2.05 ± 0.052 kcal/mol; in data set [2], 2.12 ± 0.033 kcal/mol; in data set [3] it was 2.1 ± 0.033 kcal/mol.
Turning to “SAGGSAGGSAGGPEKGKWKLVLVTMTIPLPPGASIPIPNGVWIYYTDGKIEIWFLMWVPDSAGGSAGGSAGG [r7_506_TrROS]”, the “folding stability dG unfold” value in data set [1] was 3.33 ± 0.15 kcal/mol; in data set [2] it was 5.07 ± 0.11 kcal/mol; in data set [3] it was 4.8 ± 0.21 kcal/mol.
On the same counts, the results for “SAGGSAGGSAGGPEVNIEVERYRLPNGGYLLVIRTSDGEEIVIEFDSPEEALKAAKEIAKSAGGSAGGSAGG [r11_955_TrMRF]” are 1.73 ± 0.035 kcal/mol, 2.04 ± 0.056 kcal/mol and 1.93 ± 0.077 kcal/mol.
On the same counts, the results for “SAGGSAGGSAGGPEWRWREFTIPGDPEEIKKLFPNFKILSPEPPPNGMRKVTIWIPPEDSAGGSAGGSAGGS [r10_764_TrROS]” are -0.0853 ± 0.6 kcal/mol, 1.54 ± 0.079 kcal/mol and 1.27 ± 0.12 kcal/mol.
On to “SAGGSAGGSAGGPIITPKIRDALKAAGKDFSEEEIRGIAEGIAAIAIEKGYPDVVITADASAGGSAGGSAGG [r7_512_TrMRF]”, for which the entries for the “folding stability dG unfold” value in data set [1], in data set [2] and in data set [3] were -0.259 ± 0.06 kcal/mol, 0.938 ± 0.018 kcal/mol and 0.669 ± 0.045 kcal/mol, respectively.
As to “SAGGSAGGSAGGPIPGSTIPSVPVKIVNIHPDGTKTEYFNSDIPIDALKEKFPGEIEFESSAGGSAGGSAGG [r17_125_TrMRF]”, the “folding stability dG unfold” value stood at 0.562 ± 0.065 kcal/mol in data set [1], 0.734 ± 0.029 kcal/mol in data set [2] and 0.703 ± 0.065 kcal/mol in data set [3].
In the case of “SAGGSAGGSAGGPKIVRIAGNPETGILIIEFENGEKKVIELKQEEADKLAKENPGVEVLTSAGGSAGGSAGG [r7_175_TrMRF]”, the “folding stability dG unfold” value in data set [1] is 1.03 ± 0.059 kcal/mol; in data set [2], 0.433 ± 0.056 kcal/mol; in data set [3] it was 0.777 ± 0.11 kcal/mol.
For the sequence “SAGGSAGGSAGGPKYKIEIEIKKIKVKVEKTVKYDGKTYKEEKEFEVLEIKIKIEPEGESAGGSAGGSAGGS [r10_118_TrROS_Hall]”, the “folding stability dG unfold” value in data set [1] turned out to be 3.19 ± 0.36 kcal/mol; in data set [2], 4.29 ± 0.21 kcal/mol; in data set [3] it was 4.05 ± 0.29 kcal/mol.
“SAGGSAGGSAGGPNGKPLNLKIEIPKIEKIQRVNGRPVIRIPVRMTFPGKEVKMTIWIPISAGGSAGGSAGG [r7_739_TrROS]”: the results for the “folding stability dG unfold” value in data set [1], in data set [2] and in data set [3] were 2.13 ± 0.086 kcal/mol, 2.44 ± 0.048 kcal/mol and 2.3 ± 0.095 kcal/mol, respectively.
“SAGGSAGGSAGGPNLQIMVMQTDNSLTVMIYLPEGWVIVYKITPMKIELEIMPLKDPDDSAGGSAGGSAGGS [r10_1169_TrROS]”: the “folding stability dG unfold” value was 3.98 ± 0.32 kcal/mol in data set [1], 5.17 ± 0.32 kcal/mol in data set [2] and 4.89 ± 0.28 kcal/mol in data set [3].
On the same counts, the results for “SAGGSAGGSAGGPNLRIKLKPYPDGKWKIDEIEVPDNHVTIPMRFGNGGEERKTMPPEQISAGGSAGGSAGG [r7_829_TrROS]” are 1.42 ± 0.065 kcal/mol, -0.484 ± 0.48 kcal/mol and 0.666 ± 0.29 kcal/mol.
Regarding “SAGGSAGGSAGGPPDDWILMIEIVTITIEMKYKDGGKEVERKMEILVIEIAIIPPDDLPSAGGSAGGSAGGS [r10_300_TrROS]”, the entries for the “folding stability dG unfold” value in data set [1], in data set [2] and in data set [3] were 2.21 ± 0.2 kcal/mol, 3.59 ± 0.29 kcal/mol and 3.11 ± 0.37 kcal/mol, respectively.
Regarding “SAGGSAGGSAGGPPDEVVTTVTEIELPDDKVVTVTTTTVPGAGTTTTTVTTKPLTKPGVSSAGGSAGGSAGG [r11_695_JUSTAS]”, the “folding stability dG unfold” value stood at 2.5 ± 0.086 kcal/mol in data set [1], 1.12 ± 0.029 kcal/mol in data set [2] and 1.82 ± 0.047 kcal/mol in data set [3].
Consider “SAGGSAGGSAGGPPILLPKFDGSVKEVLTLPTEDRLLLVAYNPETGKLFVFEIKDPDEFSAGGSAGGSAGGS [r10_772_TrMRF]”, for which the “folding stability dG unfold” value was 0.694 ± 0.044 kcal/mol in data set [1], 1.65 ± 0.063 kcal/mol in data set [2] and 1.34 ± 0.14 kcal/mol in data set [3].
As for “SAGGSAGGSAGGPPKPIKVLLYKPEENKLYVLVFPEGVSLEEVKKYVESHPNFKIVSVEGSAGGSAGGSAGG [r7_624_TrMRF]”, the “folding stability dG unfold” value amounted to 2.04 ± 0.087 kcal/mol in data set [1], 3 ± 0.051 kcal/mol in data set [2] and 2.72 ± 0.11 kcal/mol in data set [3].
For “SAGGSAGGSAGGPPKWVIFIMIEIRPVTVEVYDPKNGEPLMEKPVWVIKIKIFLFKPGDFSAGGSAGGSAGG [r7_573_TrROS]” the same measures were 3.07 ± 0.081 kcal/mol, 4.82 ± 0.13 kcal/mol and 4.54 ± 0.13 kcal/mol.
In the case of “SAGGSAGGSAGGPPPGQKVTMWVIRIEIKIKLERTPDGKLKLKIEIKISIVFITIYAPDSAGGSAGGSAGGS [r10_297_TrROS]”, the results for the “folding stability dG unfold” value in data set [1], in data set [2] and in data set [3] were 3.45 ± 0.13 kcal/mol, 4.87 ± 0.19 kcal/mol and 4.6 ± 0.22 kcal/mol, respectively.

For the origin of these results see the supplement of paper PMC12764529.
